In patent publication US20130095108:

Columns and labels:
[1] = molecular target: T1, Corn Trypsin Inhibitor (CTI, Calbiochem), P01088
T1 chain: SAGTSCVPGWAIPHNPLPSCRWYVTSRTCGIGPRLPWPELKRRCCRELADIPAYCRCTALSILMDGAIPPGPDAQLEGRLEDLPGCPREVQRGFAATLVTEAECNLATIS

[2] = molecular target: Peptide LRG20 (position 166-185) from uPAR's domain 2
[3] = molecular target: Peptide TCK from uPAR's domain 2 (position 196-214)

B1: FXII in bronchoalveolar lavage fluid (BALF) from IPF patients (protein)
chain: IPPWEAPKEHKYKAEEHTVVLTVTGEPCHFPFQYHRQLYHKCTHKGRPGPQPWCATTPNFDQDQRWGYCLEPKKVKDHCSKHSPCQKGGTCVNMPSGPHCLCPQHLTGNHCQKEKCFEPQLLRFFHKNEIWYRTEQAAVARCQCKGPDAHCQRLASQACRTNPCLHGGRCLEVEGHRLCHCPVGYTGAFCDVDTKASCYDGRGLSYRGLARTTLSGAPCQPWASEATYRNVTAEQARNWGLGGHAFCRNPDNDIRPWCFVLNRDRLSWEYCDLAQCQTPTQAAPPTPVSPRLHVPLMPAQPAPPKPQPTTRTPPQSQTPGALPAKREQPPSLTRNGPLSCGQRLRKSLSSMTRVVGGLVALRGAHPYIAALYWGHSFCAGSLIAPCWVLTAAHCLQDRPAPEDLTVVLGQERRNHSCEPCQTLAVRSYRLHEAFSPVSYQHDLALLRLQEDADGSCALLSPYVQPVCLPSGAARPSETTLCQVAGWGHQFEGAEEYASFLQEAQVPFLSLERCSAPDVHGSSILPGMLCAGFLEGGTDACQGDSGGPLVCEDQAAERRLTLQGIISWGSGCGDRNKPGVYTDVAYYLAWIREHTVS
[1]
  FXII activity assay using chromogenic substrate: The specificity of performed assay was proved by blockade of FXII activity by its inhibitor, Corn Trypsin Inhibitor (CTI)

B2: FXIIa (activated factor XII; American Diagnostica, Stamford, Conn.) (protein)
chain: IPPWEAPKEHKYKAEEHTVVLTVTGEPCHFPFQYHRQLYHKCTHKGRPGPQPWCATTPNFDQDQRWGYCLEPKKVKDHCSKHSPCQKGGTCVNMPSGPHCLCPQHLTGNHCQKEKCFEPQLLRFFHKNEIWYRTEQAAVARCQCKGPDAHCQRLASQACRTNPCLHGGRCLEVEGHRLCHCPVGYTGAFCDVDTKASCYDGRGLSYRGLARTTLSGAPCQPWASEATYRNVTAEQARNWGLGGHAFCRNPDNDIRPWCFVLNRDRLSWEYCDLAQCQTPTQAAPPTPVSPRLHVPLMPAQPAPPKPQPTTRTPPQSQTPGALPAKREQPPSLTRNGPLSCGQRLRKSLSSMTRVVGGLVALRGAHPYIAALYWGHSFCAGSLIAPCWVLTAAHCLQDRPAPEDLTVVLGQERRNHSCEPCQTLAVRSYRLHEAFSPVSYQHDLALLRLQEDADGSCALLSPYVQPVCLPSGAARPSETTLCQVAGWGHQFEGAEEYASFLQEAQVPFLSLERCSAPDVHGSSILPGMLCAGFLEGGTDACQGDSGGPLVCEDQAAERRLTLQGIISWGSGCGDRNKPGVYTDVAYYLAWIREHTVS
[2]
  [3H]-thymidine incorporation in murine lung fibroblasts: Peptide LRG20 (position 166-185) from uPAR's domain 2 blocked increase in DNA synthesis after FXIIa stimulation
[1]
  [3H]-thymidine incorporation in murine lung fibroblasts: FXII-induced proliferation was blocked by FXIIa specific inhibitor, CTI
  p44/42 and Akt phosphorylation (Western blot) in murine lung fibroblasts: CTI attenuated p44/42 and Akt phosphorylation after 30 min of FXIIa exposure
Random peptide
  [3H]-thymidine incorporation in murine lung fibroblasts: peptide TCK from domain 2 (position 196-214) and random peptide had no effect on FXIIa induced proliferation
[3]
  [3H]-thymidine incorporation in murine lung fibroblasts: peptide TCK from domain 2 (position 196-214) and random peptide had no effect on FXIIa induced proliferation
